These results are taken from the supplement of paper PMC9112550, “Optimization of the antimicrobial peptide Bac7 by deep mutational scanning” (BMC Biology, 2022).

This series has as its system Escherichia coli TOP10. Briefly: shrunken log2 fold change of peptide-encoding DNA abundance (4.5 h post-induction vs induction); higher = less antimicrobial activity (less host growth inhibition). Particulars: time post-induction: 4.5 h; library: site-saturation at positions 5, 18, 19, 20.
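Also: peptides expressed intracellularly from a pBAD plasmid library in pooled LB shake-flask culture, induced with 0.3% L-arabinose, DNA abundance read by NGS, three biological replicates, DESeq2 with apeglm shrinkage.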

On to RRIRARPPRLPRPRPRPNVHPRP, for which the “shrunken log2 fold change” value was determined as 0.0927.
Then RRIRRRPPRLPRPRPRPTQIPRP, with -0.0829.
On to RRIRDRPPRLPRPRPRPACTPRP, for which the “shrunken log2 fold change” value stood at 0.642.
For RRIRTRPPRLPRPRPRPASCPRP the value was 0.066; for RRIRRRPPRLPRPRPRPGGSPRP, 0.0293; for RRIRTRPPRLPRPRPRPHTVPRP, -0.244.
Then RRIRGRPPRLPRPRPRPFVRPRP, with 0.0432; and RRIRSRPPRLPRPRPRPGFQPRP, with -0.114; and RRIRDRPPRLPRPRPRPPAMPRP, with 0.87.
Then RRIRCRPPRLPRPRPRPMYVPRP, with -0.766.
For RRIRARPPRLPRPRPRPAIFPRP, the “shrunken log2 fold change” value came out at 0.562.
For RRIRPRPPRLPRPRPRPDSKPRP the value was -0.238; for RRIRQRPPRLPRPRPRPWEKPRP, -0.0123.
For RRIRLRPPRLPRPRPRPSDPPRP the value was -0.0539.
Then RRIRARPPRLPRPRPRPDKVPRP, with 0.0597.
In the case of RRIRNRPPRLPRPRPRPANNPRP, the “shrunken log2 fold change” value was -0.0944.
Then RRIRGRPPRLPRPRPRPWYHPRP, with -0.347; and RRIRQRPPRLPRPRPRPWPMPRP, with -0.0342.
Then RRIRWRPPRLPRPRPRPQVRPRP, with 0.037; and RRIRGRPPRLPRPRPRPDHEPRP, with 0.858; and RRIRERPPRLPRPRPRPMENPRP, with -0.104.
For RRIRWRPPRLPRPRPRPSGDPRP the value was 0.537.
As for RRIRGRPPRLPRPRPRPVEYPRP, the “shrunken log2 fold change” value was -0.0779.
For RRIRTRPPRLPRPRPRPRSYPRP the value was 0.0838.
For RRIRRRPPRLPRPRPRPTSIPRP the value was -0.107; for RRIRDRPPRLPRPRPRPNHMPRP, -0.776.
As for RRIRARPPRLPRPRPRPSNVPRP, the “shrunken log2 fold change” value was -0.248.
Then RRIRNRPPRLPRPRPRPYQDPRP, with -0.064; and RRIRHRPPRLPRPRPRPKRMPRP, with 0.101; and RRIRLRPPRLPRPRPRPKYCPRP, with 0.0654.
Then RRIRNRPPRLPRPRPRPSGCPRP, with -0.151; and RRIRSRPPRLPRPRPRPCLHPRP, with -0.0514.
Then RRIRLRPPRLPRPRPRPWLRPRP, with -0.0452.
Turning to RRIRFRPPRLPRPRPRPTNCPRP, the “shrunken log2 fold change” value amounted to 0.0341.
For RRIRSRPPRLPRPRPRPASFPRP the value was -0.226; for RRIRKRPPRLPRPRPRPIHWPRP, 0.137.
For RRIRKRPPRLPRPRPRPDPRPRP the value was 1.19.
Then RRIRRRPPRLPRPRPRPVDHPRP, with 0.34.
In the case of RRIRRRPPRLPRPRPRPDIMPRP, the “shrunken log2 fold change” value is -0.146.
Then RRIRSRPPRLPRPRPRPKLVPRP, with -0.0443.
For RRIRQRPPRLPRPRPRPQTNPRP the value was -0.736; for RRIRFRPPRLPRPRPRPCTHPRP, -0.842.
Then RRIRWRPPRLPRPRPRPCLRPRP, with 0.0809; and RRIRGRPPRLPRPRPRPPRQPRP, with 1.27.
As to RRIRSRPPRLPRPRPRPIPYPRP, the “shrunken log2 fold change” value was -0.344.
Then RRIRIRPPRLPRPRPRPIPDPRP, with -1.08; and RRIRVRPPRLPRPRPRPFPVPRP, with -0.0106; and RRIRTRPPRLPRPRPRPGPTPRP, with 0.455.
Take RRIRDRPPRLPRPRPRPEQQPRP: the “shrunken log2 fold change” value stood at 0.374.
Then RRIRWRPPRLPRPRPRPMRLPRP, with 0.905; and RRIRFRPPRLPRPRPRPRYCPRP, with -0.647; and RRIRQRPPRLPRPRPRPEQVPRP, with 0.107.
Then RRIRYRPPRLPRPRPRPMTDPRP, with -0.0354; and RRIRGRPPRLPRPRPRPFLQPRP, with 0.231.
For RRIRCRPPRLPRPRPRPVFAPRP the value was -0.224.
For RRIRARPPRLPRPRPRPQIEPRP, the “shrunken log2 fold change” value stood at 0.234.
Then RRIRYRPPRLPRPRPRPIIVPRP, with -0.249.
Then RRIRERPPRLPRPRPRPLIYPRP, with -0.682; and RRIRIRPPRLPRPRPRPLKRPRP, with -0.0843; and RRIRGRPPRLPRPRPRPIKQPRP, with -0.0183.
As to RRIRFRPPRLPRPRPRPWGRPRP, the “shrunken log2 fold change” value turned out to be 0.0219.
Then RRIRSRPPRLPRPRPRPQPDPRP, with -0.185.
Then RRIRARPPRLPRPRPRPDRCPRP, with 0.285; and RRIRARPPRLPRPRPRPSYDPRP, with -0.52; and RRIRYRPPRLPRPRPRPSRPPRP, with -0.084.
Then RRIRFRPPRLPRPRPRPMCQPRP, with -0.123; and RRIRWRPPRLPRPRPRPEMTPRP, with -0.0833.
As to RRIRLRPPRLPRPRPRPDKQPRP, the “shrunken log2 fold change” value was -6.78e-05.
On to RRIRSRPPRLPRPRPRPRPDPRP, for which the “shrunken log2 fold change” value was 0.218.
Then RRIRIRPPRLPRPRPRPKQAPRP, with 0.0872; and RRIRGRPPRLPRPRPRPDGVPRP, with 0.368; and RRIRVRPPRLPRPRPRPEFTPRP, with -0.0269.
For RRIRCRPPRLPRPRPRPYRLPRP the value was -0.0743; for RRIRYRPPRLPRPRPRPTQLPRP, -0.46; for RRIRGRPPRLPRPRPRPCRAPRP, 0.495.
Then RRIRMRPPRLPRPRPRPSMQPRP, with 0.345.
RRIRTRPPRLPRPRPRPQHCPRP: the “shrunken log2 fold change” value was -0.0947.
Then RRIRERPPRLPRPRPRPSNDPRP, with -0.247.
As for RRIRSRPPRLPRPRPRPNTVPRP, the “shrunken log2 fold change” value is -0.308.
Then RRIRCRPPRLPRPRPRPLTRPRP, with 0.258; and RRIRLRPPRLPRPRPRPWRSPRP, with -0.0908.
As for RRIRNRPPRLPRPRPRPRVHPRP, the “shrunken log2 fold change” value worked out at 0.172.
For RRIRYRPPRLPRPRPRPKFQPRP the value was -0.0557; for RRIRCRPPRLPRPRPRPDEGPRP, -0.00232.
Then RRIRKRPPRLPRPRPRPQMMPRP, with -0.0245; and RRIRKRPPRLPRPRPRPPVTPRP, with 0.39; and RRIRKRPPRLPRPRPRPQHVPRP, with -0.124.
On to RRIRFRPPRLPRPRPRPYGWPRP, for which the “shrunken log2 fold change” value was -0.0451.
For RRIRDRPPRLPRPRPRPFNFPRP the value was -0.703; for RRIRMRPPRLPRPRPRPWTFPRP, 0.055; for RRIRLRPPRLPRPRPRPYPDPRP, -0.598.
For RRIRNRPPRLPRPRPRPFPMPRP the value was -0.0139.
For RRIRTRPPRLPRPRPRPFKCPRP the value was -0.18; for RRIRHRPPRLPRPRPRPKPMPRP, 0.223.
Regarding RRIRPRPPRLPRPRPRPIDFPRP, the “shrunken log2 fold change” value is -0.125.
For RRIRIRPPRLPRPRPRPLMDPRP the value was -0.396.
For RRIRMRPPRLPRPRPRPYSWPRP the value was -0.0788.
Then RRIRNRPPRLPRPRPRPTWCPRP, with -0.0306.
With RRIRWRPPRLPRPRPRPAAMPRP, the “shrunken log2 fold change” value is 0.604.
Regarding RRIRDRPPRLPRPRPRPIRKPRP, the “shrunken log2 fold change” value is 0.0201.
For the sequence RRIRLRPPRLPRPRPRPTIGPRP, the “shrunken log2 fold change” value was -0.192.
For RRIRMRPPRLPRPRPRPWRPPRP the value was 0.308; for RRIRFRPPRLPRPRPRPKYGPRP, -0.234.
For RRIRCRPPRLPRPRPRPRLLPRP the value was 0.159; for RRIRMRPPRLPRPRPRPAIPPRP, 0.0268.
For RRIRWRPPRLPRPRPRPAEYPRP, the “shrunken log2 fold change” value was determined as 0.101.
Then RRIRDRPPRLPRPRPRPYSHPRP, with -0.471.
On to RRIRWRPPRLPRPRPRPKGPPRP, for which the “shrunken log2 fold change” value came out at 3.65.
For RRIRSRPPRLPRPRPRPMMCPRP the value was 0.0105; for RRIRNRPPRLPRPRPRPPQIPRP, 0.013.
Then RRIRFRPPRLPRPRPRPLNFPRP, with -0.452; and RRIRGRPPRLPRPRPRPWPAPRP, with 0.763; and RRIRTRPPRLPRPRPRPTFWPRP, with 0.467.
For RRIRMRPPRLPRPRPRPSMWPRP the value was 0.09.
Regarding RRIRTRPPRLPRPRPRPQFPPRP, the “shrunken log2 fold change” value is -0.0282.
For RRIRWRPPRLPRPRPRPEKTPRP the value was 0.191.
In the case of RRIRLRPPRLPRPRPRPLNLPRP, the “shrunken log2 fold change” value is -0.381.
Then RRIRYRPPRLPRPRPRPKTSPRP, with -0.595.
For RRIRERPPRLPRPRPRPGIPPRP the value was -0.421; for RRIRDRPPRLPRPRPRPYGLPRP, -0.0553.
In the case of RRIRCRPPRLPRPRPRPYGYPRP, the “shrunken log2 fold change” value is -0.0837.
As for RRIRMRPPRLPRPRPRPPVNPRP, the “shrunken log2 fold change” value was 0.648.
For RRIRYRPPRLPRPRPRPGCTPRP the value was -0.0794.
For RRIRARPPRLPRPRPRPGEFPRP the value was 0.388; for RRIRWRPPRLPRPRPRPMEIPRP, -0.0287.
